Measured values as given in patent publication US20020102617.

Assays:
[1] = test system: Elk1
[2] = test system: Kemptide (a peptide substrate for PKA)
[3] = test system: protein phosphatase inhibitor 2 (I-2)

| Substance | phosphorylation (33P-γ-ATP, autoradiography emulsion on slide) [1] | phosphorylation (33P-γ-ATP, autoradiography emulsion on slide) [2] | phosphorylation (33P-γ-ATP, autoradiography emulsion on slide) [3] |
| --- | --- | --- | --- |
| casein kinase II (CKII) | only the specific substrates of these kinases (I-2 and Elk1, respectively) were phosphorylated (Elk1 not phosphorylated by CKII) | only the specific substrates of these kinases (I-2 and Elk1, respectively) were phosphorylated (Kemptide not phosphorylated by CKII) | only the specific substrates of these kinases (I-2 and Elk1, respectively) were phosphorylated |
| catalytic subunit of cAMP-dependent protein kinase (PKA) | only the substrate for PKA (Kemptide) was phosphorylated (Elk1 not phosphorylated) | only the substrate for PKA (Kemptide) was phosphorylated | only the substrate for PKA (Kemptide) was phosphorylated (I-2 not phosphorylated) |
| p42 MAP kinase (Erk2) | only the specific substrates of these kinases (I-2 and Elk1, respectively) were phosphorylated | only the specific substrates of these kinases (I-2 and Elk1, respectively) were phosphorylated (Kemptide not phosphorylated by Erk2) | only the specific substrates of these kinases (I-2 and Elk1, respectively) were phosphorylated (I-2 not phosphorylated by Erk2) |
